From patent US20240124890A1

Target: activated human plasma kallikrein (Enzyme Research Laboratories) (human) (UniProt P03952)
Test: cell-based or functional assay

Chain of UniProt P03952 (P03952 20-638 limits assumed): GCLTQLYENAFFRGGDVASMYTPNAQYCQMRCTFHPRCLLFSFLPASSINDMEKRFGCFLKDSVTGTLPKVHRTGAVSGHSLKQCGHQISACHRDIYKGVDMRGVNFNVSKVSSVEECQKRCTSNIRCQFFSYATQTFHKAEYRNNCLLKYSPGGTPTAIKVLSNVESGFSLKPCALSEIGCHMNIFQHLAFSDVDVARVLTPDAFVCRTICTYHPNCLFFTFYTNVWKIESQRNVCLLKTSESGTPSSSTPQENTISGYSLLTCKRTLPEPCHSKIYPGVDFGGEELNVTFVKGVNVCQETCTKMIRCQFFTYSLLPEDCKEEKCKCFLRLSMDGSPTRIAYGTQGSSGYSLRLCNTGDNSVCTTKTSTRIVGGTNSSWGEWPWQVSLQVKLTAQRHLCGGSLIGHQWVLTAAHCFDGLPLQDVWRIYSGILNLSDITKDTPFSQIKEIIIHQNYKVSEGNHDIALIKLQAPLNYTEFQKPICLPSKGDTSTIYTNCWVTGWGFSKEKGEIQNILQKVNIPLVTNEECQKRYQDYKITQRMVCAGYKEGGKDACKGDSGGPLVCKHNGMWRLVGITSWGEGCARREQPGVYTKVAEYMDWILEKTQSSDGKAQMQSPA

Substance “Therapeutic antibody (GenScript), human anti-pKal antibody (lanadelumab)” has a suppression of pKal activity (PFR-AMC fluorogenic kinetic enzymatic assay) of 0.1 nM.
